Test results reported in PMC3212559, “Large-Scale Protein-Protein Interaction Analysis in Arabidopsis Mesophyll Protoplasts by Split Firefly Luciferase Complementation” (PLoS ONE, 2011).

Key:
Assay in all cases: split reporter (BiFC, NanoBiT); SFLC in living Arabidopsis mesophyll protoplasts: Aux/IAA-FLucN or MYB30-FLucN co-expressed with ARFCTD-FLucC or Aux/IAA-FLucC for 6 hr; 10 µg of each construct, 2×10^4 cells, 96-well plate, D-luciferin; relative activity standardised against ARF5CTD-FLucC + IAA28-FLucN
Details in all cases: partners not purified
[1] = biological target: T1, IAA14-FLucC (Arabidopsis, UniProt Q38832 1-228)
T1 construct: Arabidopsis Aux/IAA protein IAA14; also called Aux/IAA-FLucC; source: Arabidopsis mesophyll protoplasts, transfected, in living cells; not shown: FLucC (firefly luciferase aa 394-550)
T1 sequence (looked up): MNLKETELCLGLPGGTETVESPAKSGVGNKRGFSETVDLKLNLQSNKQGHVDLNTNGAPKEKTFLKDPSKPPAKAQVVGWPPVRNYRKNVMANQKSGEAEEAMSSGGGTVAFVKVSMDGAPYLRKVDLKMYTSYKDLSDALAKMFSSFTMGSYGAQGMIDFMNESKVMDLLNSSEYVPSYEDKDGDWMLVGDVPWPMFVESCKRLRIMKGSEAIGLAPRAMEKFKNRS

[2] = biological target: T2, IAA3-FLucC (Arabidopsis, UniProt Q38822 1-189)
T2 construct: Arabidopsis Aux/IAA protein IAA3; also called Aux/IAA-FLucC; source: Arabidopsis mesophyll protoplasts, transfected, in living cells; not shown: FLucC (firefly luciferase aa 394-550)
T2 sequence (looked up): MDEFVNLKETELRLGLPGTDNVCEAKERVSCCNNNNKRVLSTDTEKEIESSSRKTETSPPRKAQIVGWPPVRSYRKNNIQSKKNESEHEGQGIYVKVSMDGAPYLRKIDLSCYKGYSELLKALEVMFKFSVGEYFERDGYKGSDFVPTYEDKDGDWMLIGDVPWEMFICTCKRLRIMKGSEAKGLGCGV

[3] = biological target: T3, IAA19-FLucC (Arabidopsis, UniProt O24409 1-197)
T3 construct: Arabidopsis Aux/IAA protein IAA19; also called Aux/IAA-FLucC; source: Arabidopsis mesophyll protoplasts, transfected, in living cells; not shown: FLucC (firefly luciferase aa 394-550)
T3 sequence (looked up): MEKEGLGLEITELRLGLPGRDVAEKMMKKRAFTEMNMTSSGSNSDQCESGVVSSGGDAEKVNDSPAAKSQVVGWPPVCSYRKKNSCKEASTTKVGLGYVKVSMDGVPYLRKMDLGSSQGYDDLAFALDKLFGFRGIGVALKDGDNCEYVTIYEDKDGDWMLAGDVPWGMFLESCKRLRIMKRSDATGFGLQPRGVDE

[4] = biological target: T4, IAA1-FLucC (Arabidopsis, UniProt P49677 1-168)
T4 construct: Arabidopsis Aux/IAA protein IAA1; also called Aux/IAA-FLucC; source: Arabidopsis mesophyll protoplasts, transfected, in living cells; not shown: FLucC (firefly luciferase aa 394-550)
T4 sequence (looked up): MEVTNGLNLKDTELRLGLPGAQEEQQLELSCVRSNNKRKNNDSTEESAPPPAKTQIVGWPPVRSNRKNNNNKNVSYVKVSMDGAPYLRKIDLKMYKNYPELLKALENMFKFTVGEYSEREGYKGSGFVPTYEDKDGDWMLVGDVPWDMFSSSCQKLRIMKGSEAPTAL

[5] = biological target: T5, IAA12-FLucC (Arabidopsis, UniProt Q38830 1-239)
T5 construct: Arabidopsis Aux/IAA protein IAA12; also called Aux/IAA-FLucC; source: Arabidopsis mesophyll protoplasts, transfected, in living cells; not shown: FLucC (firefly luciferase aa 394-550)
T5 sequence (looked up): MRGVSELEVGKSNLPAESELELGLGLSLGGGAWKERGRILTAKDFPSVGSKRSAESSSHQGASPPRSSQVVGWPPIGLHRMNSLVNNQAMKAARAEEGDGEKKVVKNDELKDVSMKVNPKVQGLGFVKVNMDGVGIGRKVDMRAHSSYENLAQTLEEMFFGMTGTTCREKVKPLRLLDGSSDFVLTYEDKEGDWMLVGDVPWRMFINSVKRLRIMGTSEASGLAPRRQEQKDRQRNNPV

[6] = biological target: T6, ARF4 C-terminal domain (CTD)-FLucC (Arabidopsis, UniProt Q9ZTX9 665-788)
T6 construct: Arabidopsis auxin response factor 4, C-terminal dimerization domain (CTD); In the ARF-ARF tests the same CTD stood both as ARFCTD-FLucC and as ARFCTD-FLucN; one molecule for both; also called ARF4CTD-FLucC; ARFCTD-FLucC; source: Arabidopsis mesophyll protoplasts, transfected, in living cells (SFLC) and in lysate (co-IP); not shown: FLucC (firefly luciferase aa 394-550)
T6 sequence (looked up): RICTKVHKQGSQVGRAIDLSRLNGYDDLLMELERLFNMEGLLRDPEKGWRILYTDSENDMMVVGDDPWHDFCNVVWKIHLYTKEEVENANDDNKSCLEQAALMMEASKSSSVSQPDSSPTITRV

Measured: relative luciferase activity (standardised against ARF5CTD-FLucC + IAA28-FLucN)

B1: MYB30-FLucN (natural protein, UniProt Q9SCU7 1-323, looked up)
chain: MVRPPCCDKGGVKKGPWTPEEDIILVTYIQEHGPGNWRAVPTNTGLLRCSKSCRLRWTNYLRPGIKRGNFTEHEEKMIVHLQALLGNRWAAIASYLPQRTDNDIKNYWNTHLKKKLNKVNQDSHQELDRSSLSSSPSSSSANSNSNISRGQWERRLQTDIHLAKKALSEALSPAVAPIITSTVTTTSSSAESRRSTSSASGFLRTQETSTTYASSTENIAKLLKGWVKNSPKTQNSADQIASTEVKEVIKSDDGKECAGAFQSFSEFDHSYQQAGVSPDHETKPDITGCCSNQSQWSLFEKWLFEDSGGQIGDILLDENTNFF
notes: transcription factor MYB30, the unrelated protein used as negative control; source: Arabidopsis mesophyll protoplasts, transfected, in living cells; not shown: FLucN (firefly luciferase aa 1-398)
< 0.1: [1] | [2] | [3] | [4] | [5] | [6]
